Experimental data published in US20040209310A1 (published 2004).

Target: T1, myc-tagged Mindin (pcDNA-His/myc-Mindin) (human, UniProt Q9BUD6 27-331)
T1 construct: mature; not shown: His/myc tag of vector pcDNA4-His/myc A
T1 sequence (looked up): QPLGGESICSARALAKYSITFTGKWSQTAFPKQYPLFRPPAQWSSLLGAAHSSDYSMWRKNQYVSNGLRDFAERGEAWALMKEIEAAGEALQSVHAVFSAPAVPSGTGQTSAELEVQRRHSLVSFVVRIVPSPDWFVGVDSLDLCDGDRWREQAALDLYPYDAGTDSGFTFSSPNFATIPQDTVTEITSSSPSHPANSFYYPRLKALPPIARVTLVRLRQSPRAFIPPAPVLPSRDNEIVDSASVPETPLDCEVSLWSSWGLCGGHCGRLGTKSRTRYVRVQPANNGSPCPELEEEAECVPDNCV
Experiment: pulldown of myc-tagged Mindin with immobilized GST-CAPPD
Procedure: Affinity chromatography on immobilized GST- or Ig-fusion proteins. These studies were performed essentially as described (Ichtchenko et al., 1995, Cell 81:435-443; Hata et al., Nature 366:347-351). Brain membrane extract was precleared by incubation (2 h at 4° C.) with glutathione agarose and incubated overnight at 4° C. with immobilized GST-CAPPD on glutathione agarose beads preequilibrated with buffer B. Beads were washed with buffer B and serially eluted with 2 ml of buffer B containing 0.3 M NaCl, 0.5 M NaCl, 1.0 M NaCl, or 1.0 M NaCl, 10 mM EGTA, and 5 mM EDTA (instead of 2 mM CaCl2). Eluted proteins were analyzed by SDS-PAGE and Coomassie blue staining. Bound proteins were identified by liquid chromatography/mass spectroscopy of tryptic fragments. For pulldown assays, the medium from COS cells transfected with pcDNA4-His/myc-F spondin or pcDNA-His/myc-Mindin (collected 48-72 h post transfection) was adjusted to (final concentrations) 10 mM HEPES-NaOH pH 7.4, 1 mM EGTA, 1% Triton X-100, proteinase inhibitors were added, and the supernatant was precleared with immobilized GST orIg-C. The treated medium was then incubated overnight at 4° C. with GST or GST-CAPPD immobilized on glutathione agarose or with various Ig-APP fusion proteins immobilized on protein-A Sepharose. […]

- binding result: no binding
B1: GST-CAPPD fusion protein (pGEX-CAPPD, APP695 residues 286-557) (other, human, UniProt P05067-4 286-557, looked up)
chain: VVRVPTTAASTPDAVDKYLETPGDENEHAHFQKAKERLEAKHRERMSQVMREWEEAERQAKNLPKADKKAVIQHFQEKVESLEQEAANERQQLVETHMARVEAMLNDRRRLALENYITALQAVPPRPRHVFNMLKKYVRAEQKDRQHTLKHFEHVRMVDPKKAAQIRSQVMTHLRVIYERMNQSLSLLYNVPAVAEEIQDEVDELLQKEQNYSDDVLANMISEPRISYGNDALMPSLTETKTTVELLPVNGEFSLDDLQPWHSFGADSVPAN
notes: range 286-557; Expressed in bacteria and immobilized on glutathione agarose/Sepharose; also called CAPPD-GST fusion protein; central APP domain; not shown: glutathione S-transferase of vector pGEX-KG
